Experiment [1] addresses MACV MBP-Z fusion protein (full-length wild-type MACV Z protein) (Machupo virus) (UniProt Q6IUF9). Kind of experiment: […] (20 mM Tris-HCl pH 8.0, 500 mM NaCl, 2 mM DTT), […].
Experiment [2] deals with Machupo virus (MACV) L protein (Machupo virus, UniProt Q6IUF8 1-2209). Described as above. To be noted: both partners purified.
Machupo virus (MACV) L protein, sequence (Q6IUF8 whole entry): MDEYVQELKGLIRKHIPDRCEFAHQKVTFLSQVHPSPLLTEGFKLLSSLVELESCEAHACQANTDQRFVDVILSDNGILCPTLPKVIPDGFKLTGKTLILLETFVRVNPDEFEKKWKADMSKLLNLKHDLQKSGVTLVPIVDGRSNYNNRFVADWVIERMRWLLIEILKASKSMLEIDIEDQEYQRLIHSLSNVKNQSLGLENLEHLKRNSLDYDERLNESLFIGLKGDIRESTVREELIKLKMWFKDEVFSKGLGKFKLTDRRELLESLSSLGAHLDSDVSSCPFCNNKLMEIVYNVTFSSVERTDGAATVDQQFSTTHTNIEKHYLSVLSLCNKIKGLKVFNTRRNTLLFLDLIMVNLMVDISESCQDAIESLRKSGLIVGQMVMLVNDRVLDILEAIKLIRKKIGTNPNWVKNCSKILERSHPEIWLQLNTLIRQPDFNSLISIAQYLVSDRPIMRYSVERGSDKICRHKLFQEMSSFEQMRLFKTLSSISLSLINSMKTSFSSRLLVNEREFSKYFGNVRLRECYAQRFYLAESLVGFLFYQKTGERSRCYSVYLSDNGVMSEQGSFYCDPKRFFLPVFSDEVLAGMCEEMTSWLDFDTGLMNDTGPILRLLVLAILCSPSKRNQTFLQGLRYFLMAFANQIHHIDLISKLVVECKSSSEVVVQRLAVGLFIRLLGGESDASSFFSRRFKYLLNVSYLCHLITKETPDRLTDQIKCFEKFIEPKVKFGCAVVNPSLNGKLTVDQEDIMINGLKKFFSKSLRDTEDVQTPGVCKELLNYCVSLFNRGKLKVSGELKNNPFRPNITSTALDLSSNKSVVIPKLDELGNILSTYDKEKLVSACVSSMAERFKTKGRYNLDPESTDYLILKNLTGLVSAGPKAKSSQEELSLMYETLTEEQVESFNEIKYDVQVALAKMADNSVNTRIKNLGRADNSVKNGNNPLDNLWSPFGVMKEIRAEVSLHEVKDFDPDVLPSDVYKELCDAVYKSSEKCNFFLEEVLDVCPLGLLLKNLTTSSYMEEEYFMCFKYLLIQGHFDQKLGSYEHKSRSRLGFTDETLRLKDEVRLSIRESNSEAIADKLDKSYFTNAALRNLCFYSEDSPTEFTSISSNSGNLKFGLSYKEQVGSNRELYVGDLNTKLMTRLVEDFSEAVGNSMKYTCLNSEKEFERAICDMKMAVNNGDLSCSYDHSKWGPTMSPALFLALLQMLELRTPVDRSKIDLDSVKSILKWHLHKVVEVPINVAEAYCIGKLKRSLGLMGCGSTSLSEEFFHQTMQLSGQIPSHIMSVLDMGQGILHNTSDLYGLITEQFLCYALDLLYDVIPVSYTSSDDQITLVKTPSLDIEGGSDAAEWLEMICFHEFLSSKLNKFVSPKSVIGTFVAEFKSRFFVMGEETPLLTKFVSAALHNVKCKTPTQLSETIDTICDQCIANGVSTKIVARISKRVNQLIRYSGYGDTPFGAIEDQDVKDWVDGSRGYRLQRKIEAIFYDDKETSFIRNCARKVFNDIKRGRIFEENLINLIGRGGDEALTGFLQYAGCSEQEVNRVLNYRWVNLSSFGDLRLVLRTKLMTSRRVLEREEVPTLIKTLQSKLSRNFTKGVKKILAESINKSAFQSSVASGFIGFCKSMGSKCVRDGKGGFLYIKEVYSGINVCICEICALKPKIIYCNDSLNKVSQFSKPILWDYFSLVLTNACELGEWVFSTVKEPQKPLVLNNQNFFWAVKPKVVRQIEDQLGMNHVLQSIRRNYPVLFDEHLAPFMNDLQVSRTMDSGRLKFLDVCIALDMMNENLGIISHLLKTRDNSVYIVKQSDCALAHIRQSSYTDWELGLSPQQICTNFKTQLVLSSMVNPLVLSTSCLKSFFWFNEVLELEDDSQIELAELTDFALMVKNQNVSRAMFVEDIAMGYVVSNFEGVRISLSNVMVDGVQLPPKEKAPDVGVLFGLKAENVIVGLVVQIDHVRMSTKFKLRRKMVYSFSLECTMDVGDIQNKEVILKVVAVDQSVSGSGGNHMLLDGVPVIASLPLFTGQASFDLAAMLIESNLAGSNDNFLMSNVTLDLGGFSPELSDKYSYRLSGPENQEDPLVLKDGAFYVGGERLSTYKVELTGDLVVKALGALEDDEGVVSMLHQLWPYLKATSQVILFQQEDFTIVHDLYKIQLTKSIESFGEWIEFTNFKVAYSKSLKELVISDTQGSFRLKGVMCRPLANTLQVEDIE

The term stoichiometry N denotes a count of units in the complex or per binding partner. On to “Machupo virus (MACV) L protein, Q6IUF8 1-2209”, for which the stoichiometry N in experiment [1] is 1 Z:L.

B1: MACV MBP-Z fusion protein (full-length wild-type MACV Z protein) (natural protein)
chain: MGNCNKPPKRPPNTQTSAAQPSAEFRRTALPSLYGRYNCKCCWFADTNLITCNDHYLCLRCHQTMLRNSELCHICWKPLPTSITVPVEPSAPPP
Regarding B1, in experiment [2], the binding result is listed as “binds”.

Source of the values: PMC8546121 (Nature Communications, 2021).
